According to patent US20230390362A1, “USE OF TRIGONAL AGONIST HAVING ACTIVITIES TO ALL OF GLUCAGON, GLP-1, AND GIP RECEPTORS IN TREATMENT OF SEQUELAE FOLLOWING RESPIRATORY INFECTIOUS DISEASES” (HANMI PHARM. CO., LTD., priority 2020, published 2023):
Positions of bridges follow the written chain, without caps; N, C: chain ends. Non-standard residues stand in square brackets, D forms with d. No end group written: not given here. *: point of attachment. Acetyl(2-(4-imidazolyl)) = O=C(Cc1c[nH]cn1)*; Aib = CC(C)(N)C(=O)O

Tests used:
Assay in all cases: cell-based or functional assay
human GLP-1 receptor = human GLP-1 receptor (human, UniProt P43220 24-463)
human GCG receptor = human GCG receptor (human, UniProt P47871 26-477)
Sequence of human GCG receptor (P47871 26-477): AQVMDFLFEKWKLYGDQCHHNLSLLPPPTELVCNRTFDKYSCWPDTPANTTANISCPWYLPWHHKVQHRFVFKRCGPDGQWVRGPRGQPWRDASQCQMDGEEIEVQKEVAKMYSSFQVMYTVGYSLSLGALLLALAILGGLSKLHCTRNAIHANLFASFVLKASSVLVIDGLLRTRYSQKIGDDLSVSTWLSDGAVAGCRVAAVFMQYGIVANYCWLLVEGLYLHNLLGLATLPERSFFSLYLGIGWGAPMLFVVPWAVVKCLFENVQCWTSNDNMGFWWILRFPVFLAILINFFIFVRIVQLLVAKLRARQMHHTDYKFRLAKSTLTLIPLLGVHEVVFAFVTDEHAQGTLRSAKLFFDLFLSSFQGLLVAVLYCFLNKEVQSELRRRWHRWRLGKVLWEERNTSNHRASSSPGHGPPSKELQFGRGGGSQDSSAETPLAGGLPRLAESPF

human GIP receptor = target: T1, human GIP receptor (human, UniProt P48546 22-466)
T1 sequence (looked up): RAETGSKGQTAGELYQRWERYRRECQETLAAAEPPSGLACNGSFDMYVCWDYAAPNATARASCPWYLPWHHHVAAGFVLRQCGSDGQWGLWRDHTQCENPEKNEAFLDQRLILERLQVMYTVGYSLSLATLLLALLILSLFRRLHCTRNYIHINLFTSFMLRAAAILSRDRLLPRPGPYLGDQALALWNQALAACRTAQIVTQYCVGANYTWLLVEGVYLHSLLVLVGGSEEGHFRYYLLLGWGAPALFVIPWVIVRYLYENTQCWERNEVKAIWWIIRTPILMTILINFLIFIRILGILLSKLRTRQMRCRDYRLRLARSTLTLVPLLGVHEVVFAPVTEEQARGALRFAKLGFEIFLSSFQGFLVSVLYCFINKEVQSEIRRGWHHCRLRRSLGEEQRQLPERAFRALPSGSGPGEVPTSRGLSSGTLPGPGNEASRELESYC

| Binder | In vitro activity relative to native peptide (%), vs. GLP-1 (cAMP EC50) (human GLP-1 receptor) [%] | In vitro activity relative to native peptide (%), vs. Glucagon (cAMP EC50) (human GCG receptor) [%] | In vitro activity relative to native peptide (%), vs. GIP (cAMP EC50) (human GIP receptor) [%] |
| --- | --- | --- | --- |
| Y[Aib]QGTFTSDYSKYLDERACKDFVQWLLDHHPSSGQPPPS (bridge 16-20) [trigonal agonist of SEQ ID NO: 71] | 90.1 | 12.7 | 94.7 |
| {Acetyl(2-(4-imidazolyl))}-[Aib]QGTFTSDYSIAMDEKHCKDFVNWLLNTK (bridge 15-19) [trigonal agonist of SEQ ID NO: 60] | 106 | < 0.1 | 8.2 |
| H[Aib]QGTFTSDVSKYLDGQAAQEFVAWLLKGC [trigonal agonist of SEQ ID NO: 8] | 14.2 | 0.1 | < 0.1 |
| Y[Aib]QGTFTSDYSKYLDECAAKDFVQWLLDHHPSSGQPPPS (bridge 16-20) [trigonal agonist of SEQ ID NO: 67] | 28.5 | 46.2 | 39.8 |
| H[Aib]QGTFTSDYSIAMDEIHQKDFVNWLLNTC (bridge 16-20) [trigonal agonist of SEQ ID NO: 57] | 11.7 | < 0.1 | 0.3 |
| H[Aib]QGTFTSDVSKYLDGQAAKEFVAWLLKGC [trigonal agonist of SEQ ID NO: 7] | 13.7 | < 0.1 | < 0.1 |
| Y[Aib]QGTFTSDYSKYLDECRAKDFVQWLLDHHPSSGQPPPS (bridge 16-20) [trigonal agonist of SEQ ID NO: 66] | 15.8 | 172 | 17.2 |
| Y[Aib]QGTFTSDYSKCLDEKRAKDFVQWLLDHHPSSGQPPPS (bridge 16-20) [trigonal agonist of SEQ ID NO: 70] | 15.1 | 71.3 | 64.4 |
| Y[Aib]QGTFTSDYSKYLDEKAAKEFVQWLLDHHPSSGQPPPSC (bridge 16-20) [trigonal agonist of SEQ ID NO: 75] | 35.1 | 8.5 | 18 |
| Y[Aib]QGTFTSDYSKYLDEKAAKDFVQWLLDHHPSSGQPPPSC (bridge 16-20) [trigonal agonist of SEQ ID NO: 77] | 38.7 | 12.2 | 35.5 |
| H[Aib]EGTFTSDYSIAMDEIHQKDFVNWLLAQKC (bridge 16-20) [trigonal agonist of SEQ ID NO: 79] | 41.5 | 4.9 | 1.4 |
| {Acetyl(2-(4-imidazolyl))}-[Aib]QGTFTSDYSIAMDEIACKDFVNWLLNTK (bridge 15-19) [trigonal agonist of SEQ ID NO: 61] | 59.8 | < 0.1 | 2.8 |
| {Acetyl(2-(4-imidazolyl))}-[Aib]QGTFTSDKSKYLDERAAQDFVQWLLDGGPSSGAPPPS [trigonal agonist of SEQ ID NO: 62] | 5.2 | < 0.1 | < 0.1 |
| {Acetyl(2-(4-imidazolyl))}-[Aib]QGTFTSDCSKYLDERAAQDFVQWLLDGGPSSGAPPPS [trigonal agonist of SEQ ID NO: 63] | 15.3 | < 0.1 | < 0.1 |
| H[Aib]QGTFTSDYSKCLDEKRAKEFVQWLLDHHPSSGQPPPS (bridge 16-20) [trigonal agonist of SEQ ID NO: 65] | 95.4 | 25.2 | 11.6 |
| Y[Aib]QGTFTSDYSKCLDERAAKEFVQWLLDHHPSSGQPPPS (bridge 16-20) [trigonal agonist of SEQ ID NO: 69] | 24.3 | 9.6 | 62.8 |
| H[Aib]QGTFTSDYSKYLDEKRQKEFVNWLLAQC (bridge 16-20) [trigonal agonist of SEQ ID NO: 56] | 57.9 | 4.9 | 0.8 |
| {Acetyl(2-(4-imidazolyl))}-[Aib]QGTFTSDYSICMDEKHQKDFVNWLLNTK (bridge 15-19) [trigonal agonist of SEQ ID NO: 59] | 40.3 | < 0.1 | 4 |
| {Acetyl(2-(4-imidazolyl))}-[Aib]QGTFTSDYSKYLDECRAKEFVQWLLDHHPSSGQPPPS (bridge 15-19) [trigonal agonist of SEQ ID NO: 73] | 22.6 | 5.4 | 3 |
| {Acetyl(2-(4-imidazolyl))}-[Aib]QGTFTSDYSKCLDEKRAKEFVQWLLDHHPSSGQPPPS (bridge 15-19) [trigonal agonist of SEQ ID NO: 74] | 12.9 | 0.9 | 1 |
| Y[Aib]QGTFTSDYSKYLDECAAKEFVQWLLDHHPSSGQPPPS (bridge 16-20) [trigonal agonist of SEQ ID NO: 64] | 64.6 | 60.1 | 92.9 |
| H[Aib]QGTFTSDYSKYLDEKRQKEFVQWLLNTKC (bridge 16-20) [trigonal agonist of SEQ ID NO: 58] | 39.1 | 2.6 | 0.2 |
| Y[Aib]QGTFTSDYSKCLDEKAAKEFVQWLLDHHPSSGQPPPS (bridge 16-20) [trigonal agonist of SEQ ID NO: 68] | 27.9 | 8.8 | 107 |
| Y[Aib]QGTFTSDCSKYLDERAAKDFVQWLLDHHPSSGQPPPS (bridge 16-20) [trigonal agonist of SEQ ID NO: 72] | 11.5 | 1 | 1.6 |
| Y[Aib]QGTFTSDYSKYLDEKRAKDFVQWLLDHHPSSGQPPPSC (bridge 16-20) [trigonal agonist of SEQ ID NO: 76] | 10.3 | 47.6 | 11.7 |
